According to FireProtDB (doi:10.1021/bi00444a012):

Conditions: Bacillus amyloliquefaciens; pH 8; Thermal; DSC; Tris-HCl 5.0 mM; KCl 50 mM; reversible: yes; whole UniProt chain shown

B1: Subtilisin BPN' wild type, P00782 (protein)
chain: MRGKKVWISLLFALALIFTMAFGSTSSAQAAGKSNGEKKYIVGFKQTMSTMSAAKKKDVISEKGGKVQKQFKYVDAASATLNEKAVKELKKDPSVAYVEEDHVAHAYAQSVPYGVSQIKAPALHSQGYTGSNVKVAVIDSGIDSSHPDLKVAGGASMVPSETNPFQDNNSHGTHVAGTVAALNNSIGVLGVAPSASLYAVKVLGADGSGQYSWIINGIEWAIANNMDVINMSLGGPSGSAALKAAVDKAVASGVVVVAAAGNEGTSGSSSTVGYPGKYPSVIAVGAVDSSNQRASFSSVGPELDVMAPGVSIQSTLPGNKYGAYNGTSMASPHVAGAAALILSKHPNWTNTQVRSSLENTTTKLGDSFYYGKGLINVQAAAQ
- Tm: 58.5 °C
- heat capacity change of unfolding: 4.8 kcal/mol/K
- unfolding enthalpy (calorimetric): 88.3 kcal/mol
- unfolding enthalpy (van 't Hoff): 97 kcal/mol
